Laboratory results published in patent publication US20210369812A1, “OSTEOINDUCTIVE PEPTIDES, COMPOSITIONS, IMPLANTS, AND METHODS OF USE” (The Board of Regents of the University of Oklahoma, priority 2018, published 2021).
“Also recorded” adds a separate entry of the source.

Legend:
BMPR1A [1] = target: T1, BMPR1A (Homo sapiens, UniProt P36894); experiment: Biopanning of Ph.D.-12 phage library on immobilized BMPR1A-Fc; assay type: binding; details: peptide displayed on p3 of M13 phage; 3 rounds of panning
T1 construct: purchased G&P Biosciences
T1 sequence (P36894 24-152 limits assumed): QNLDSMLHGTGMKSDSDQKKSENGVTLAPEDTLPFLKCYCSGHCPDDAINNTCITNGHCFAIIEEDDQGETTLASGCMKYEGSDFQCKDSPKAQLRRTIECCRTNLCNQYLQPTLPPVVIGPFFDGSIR
Method: (§1) The Ph.D.™-12 phage library was diluted in tris-buffered saline mixed with Tween-20 (TBS+0.1% v/v Tween-20 and abbreviated TBST) for a final concentration of 2×10^11 phage in 1 mL of TBST. The diluted library was then pipetted onto one of the wells of a 12-well poly-L-lysine plate followed by rocking the plate gently for 60 minutes at room temperature. […] This supernatant served as the starting phage library for subsequent binding selections. The phages which stuck to the plate were discarded.
(§2) This procedure is only applicable if the charge of the desired protein to be immobilized is negative, determined by checking the pI value of the protein. […]. This procedure was written for 12-well plates coated in poly-L-lysine (positively charged). Separate solutions of BMPR1A-Fc and BMPR2-Fc were prepared at 80 μg/ml in Tris-buffered saline (pH 7.5). In separate wells and on separate poly-L-lysine coated 12-well plates, 0.3 ml of each solution of receptor was added. The solutions of BMPR1A-Fc and BMPR2-Fc were swirled around the plate surface until the entire surface was wet. The plates were then incubated overnight at 4° C. with gentle agitation in a humidified container (a sealed plastic box with damp paper towels). Each individual receptor was now immobilized.
(§3) The following selection procedure is based off of the direct coating procedure outlined in the Ph.D.™-12 Phage Display Libraries instructional manual (New England Biolabs) with some alterations. This procedure was carried out after immobilizing the targets BMPR1A-Fc and BMPR2-Fc in a 12-well poly-L-lysine coated plate. A stock solution of tetracycline was prepared (20 mg/ml in 1:1 ethanol:water). The coating solution containing the target receptors was poured off followed by firmly slapping the plates face down on a clean paper towel. Each well was then filled with blocking buffer (0.1 M NaHCO3 (pH 8.6), 5 mg/mL BSA, 0.02% NaN3. Filter sterilize, store at 4° C.) and incubated for 1 hour at 4° C. The blocking solution was then poured off followed by firmly slapping the plates down against a clean paper towel. Each plate was washed rapidly 6 times with Tris-buffered saline mixed with Tween-20 (TBS+0.1% v/v Tween-20). The plate was slapped against a clean paper towel each time. 1 ml of the phage library created from the negative selection process was then pipetted onto each of the target coated wells. The plates were then rocked gently at room temperature for 60 min. The non-binding phages were then discarded by pouring off the supernatant and slapping the plate face-down on a clean paper towel. The plate was then washed 10 times with TBST followed by slapping the plate face-down on a clean paper towel each time (a clean section of paper towel was used each time to prevent cross-contamination). The bound phages were then eluted by incubating with a nonspecific disruption buffer (0.2 M Glycine-HCl (pH 2.2), 1 mg/ml bovine serum albumin (BSA) for 15 minutes. The eluate (immersed in the disruption buffer) was then pipetted into a microcentrifuge tube followed by neutralization with 150 μl of 1 M Tris-HCl (pH 9.1). A small portion (˜1 μl) of this eluate could be titered and sequenced if desired. The rest of the eluate was amplified (see amplification of phage library section). Once amplified, the eluate was also titered. Determine the concentration of amplified phages by counting the blue plaques in titering as described. Dilute the amplified library to contain 2×10^11 phages in 1 mL of TBS (as little as 10^9 plaque forming units per ml can be used if there is not enough). A second poly-L-lysine 12-well plate was then coated with the target receptors to allow for a second round of biopanning carried out using the same steps except that the Tween-20 concentration in the wash steps was raised to 0.5% (v/v). The eluate from the second round was then amplified, titered and used in an additional 3rd round of panning on newly receptor coated plates. […]

BMPR2 [2] = target: T2, BMPR2 (Homo sapiens, UniProt Q13873); experiment: Biopanning of Ph.D.-12 phage library on immobilized BMPR2-Fc; assay type: binding; details: peptide displayed on p3 of M13 phage; 3 rounds of panning
T2 construct: purchased G&P Biosciences
T2 sequence (Q13873 27-150 limits assumed): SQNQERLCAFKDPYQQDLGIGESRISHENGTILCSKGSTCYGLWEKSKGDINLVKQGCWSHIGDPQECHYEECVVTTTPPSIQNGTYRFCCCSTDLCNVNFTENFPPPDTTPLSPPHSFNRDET
Method: as §1, §2, §3

BMPR1A [3] = target: T1, BMPR1A; experiment: Enzyme-linked immune sorbent assay for receptor binding (BMPR1A); details: peptide on p3 of M13 phage; absorbance 450 nm; n=4; vs wild type phage
Description: (§4) Groups having the same lowercase letter assigned (above the bar) were not statistically different from each other. Groups having different letters assigned (above the bar) were statistically different from each other. […] The primary antibody was mouse anti-g3p (p8) IgG. The secondary antibody was anti-mouse IgG conjugated with horseradish peroxidase. The substrate, 3,3′,5,5′-Tetramethylbenzidine was detected at 450 nm after stopping the reaction with 1 M HCl.
Blocking buffer (0.1 M NaHCO3 (pH 8.6), 5 mg/ml BSA. Filter sterilized, stored at 4° C.) was prepared. TBS (50 mM Tris-HCl (pH 7.5), 150 mM NaCl, autoclaved, stored at room temperature) was prepared. Separate solutions of the target receptors were then made. For BMPR1A, a 10 μg/ml stock solution was made. For BMPR2, a 10 μg/ml solution was also made. Separate wells with n=4 for each different peptide bearing phage group were then coated with one of the receptors. The coating was done by adding 100 μl of the target solution to wells of a 96-well plate followed by swirling until the surface was completely wet. The plates were then allowed to incubate overnight at 4° C. with gentle agitation in a humidified container (a plastic box lined with damp paper towels). Any excess target solution was then removed, and the plate was slapped face-down on a clean paper towel. The wells of the plate were then blocked with 200 μl of blocking buffer for 1 hour at room temperature. […] The blocking buffer was then removed from each plate followed by 5 washes with 200 μl of TBST. Each time the plate was slapped against a clean section of paper towel face-down. […] After a brief pilot test, it should be noted that using 10^10 phage/ml was determined to work best, but other concentrations of virus also worked consistently. […] Then, […] of freshly prepared 3,3′,5,5′-Tetramethylbenzidine (TMB) was added to each well and the absorbance at 370 nm and 652 nm was monitored for 1 hour using an ELISA plate reader. […] The absorbance at 450 nm for each well was then measured.

BMPR2 [4] = target: T2, BMPR2; experiment: Enzyme-linked immune sorbent assay for receptor binding (BMPR2); details: peptide on p3 of M13 phage; absorbance 450 nm; n=4; vs wild type phage
Description: as §4
Blocking buffer (0.1 M NaHCO3 (pH 8.6), 5 mg/ml BSA. Filter sterilized, stored at 4° C.) was prepared. TBS (50 mM Tris-HCl (pH 7.5), 150 mM NaCl, autoclaved, stored at room temperature) was prepared. Separate solutions of the target receptors were then made. For BMPR1A, a 10 μg/ml stock solution was made. For BMPR2, a 10 μg/ml solution was also made. Separate wells with n=4 for each different peptide bearing phage group were then coated with one of the receptors. […] After a brief pilot test, it should be noted that using 10^10 phage/ml was determined to work best, but other concentrations of virus also worked consistently. […] Then, […] of freshly prepared 3,3′,5,5′-Tetramethylbenzidine (TMB) was added to each well and the absorbance at 370 nm and 652 nm was monitored for 1 hour using an ELISA plate reader. […] The absorbance at 450 nm for each well was then measured.

[5] = system: human mesenchymal stem cells (hMSCs); experiment: Live cell binding through immunofluorescence; assay type: cell-based; details: 10^12 phages/ml
Method: Human mesenchymal stem cells (hMSCs) were grown to roughly 60% plate coverage in a 48-well tissue culture plate according to the company Lonza's culturing protocols. […] The hMSCs were then blocked with 0.5% BSA (dissolved in cell media) for 1 hour. The cell media for the hMSCs was then replaced with 1 ml of new cell media having of concentration of 10^12 phages/ml. Next, the plates were washed once with 400 μl of phosphate buffered saline (PBS) at a pH of 7.4. The hMSCs were then incubated with Anti-M13 Bacteriophage Coat Protein g8p antibody [RL-ph2] (ab9225) at a 1:1000 dilution in cell media (200 μl per well). The wells were then washed again with PBS (400 μl per wash). Next, the hMSCs were incubated with the secondary antibody, Goat-anti mouse AF-488 (Abcam) for 1 hour (1 ug/ml final concentration of antibody in media). The wells were then washed again with PBS (400 μl per wash). A Hoechst nuclear stain was used to stain the nuclei (PureBlu™ Hoechst 33342 Nuclear Staining Dye #1351304 from BioRad) according to the company's protocol. Cell Mask™ Orange Plasma Membrane Stain was used to stain membranes (CellMask™ Orange Plasma Membrane Stain Catalog number: C10045 from Thermo Fisher Scientific) according to the company's protocol. The phages binding to the cells were then imaged on a Nikon Eclipse Ti fluorescent microscope.

Sequence | Binding to BMPR1A found by biopanning (frequency among sequenced plaques) (BMPR1A [1]) | Binding to BMPR2 found by biopanning (frequency among sequenced plaques) (BMPR2 [2]) | Relative binding strength in ELISA to BMPR1A (BMPR1A [3]) | Relative binding strength in ELISA to BMPR2 (BMPR2 [4]) | Binding of peptide-bearing phages to live hMSCs [5]
NAKYPTMRPGPK (Completely synthesized in the lab - Ph.D.-12 Phage Display Peptide Library Kit (New England Biolabs)) | discovered to bind | discovered to bind |  |  | 
TSKYLTMRPGPK (Completely synthesized in the lab - Ph.D.-12 Phage Display Peptide Library Kit (New England Biolabs)) | discovered to bind | discovered to bind |  |  | 
GNNPLHVHHDKR (Completely synthesized in the lab - Ph.D.-12 Phage Display Peptide Library Kit (New England Biolabs)) | discovered to bind | discovered to bind |  |  | 
TAKSLPMRPGPL (Completely synthesized in the lab - Ph.D.-12 Phage Display Peptide Library Kit (New England Biolabs)) | discovered to bind | discovered to bind |  |  | 
TAKYLPMRPGPL (Completely synthesized in the lab - Ph.D.-12 Phage Display Peptide Library Kit (New England Biolabs)) | most frequently obtained peptide; also recorded: discovered to bind | discovered to bind | best binders |  | 
DYHDPSLPTLRK (Completely synthesized in the lab - Ph.D.-12 Phage Display Peptide Library Kit (New England Biolabs)) | discovered to bind | discovered to bind |  |  | 
RDYHPRDHTATW (Completely synthesized in the lab - Ph.D.-12 Phage Display Peptide Library Kit (New England Biolabs)) | discovered to bind | most frequent peptide; also recorded: discovered to bind |  | statistically significant binders | bound to what appeared to be the same location as the outer membrane; also recorded: demonstrated an ability to bind to the outer membrane
NAKYPTMRPGPL (Completely synthesized in the lab - Ph.D.-12 Phage Display Peptide Library Kit (New England Biolabs)) | discovered to bind | discovered to bind |  |  | 
